From US20240382610A1 (TALLAC THERAPEUTICS, published 2024)

How the values were obtained:
[1] = target: T1, Human nectin-4 ECD-6His (TNT-175) (human, UniProt Q96NY8 32-349); test: competition ELISA; nectin-4 ECD premixed with TNT208, captured by the coat antibody; % of signal without premix antibody
T1 construct: the entry holds the extracellular domain with the C-terminal 6His tag
T1 sequence: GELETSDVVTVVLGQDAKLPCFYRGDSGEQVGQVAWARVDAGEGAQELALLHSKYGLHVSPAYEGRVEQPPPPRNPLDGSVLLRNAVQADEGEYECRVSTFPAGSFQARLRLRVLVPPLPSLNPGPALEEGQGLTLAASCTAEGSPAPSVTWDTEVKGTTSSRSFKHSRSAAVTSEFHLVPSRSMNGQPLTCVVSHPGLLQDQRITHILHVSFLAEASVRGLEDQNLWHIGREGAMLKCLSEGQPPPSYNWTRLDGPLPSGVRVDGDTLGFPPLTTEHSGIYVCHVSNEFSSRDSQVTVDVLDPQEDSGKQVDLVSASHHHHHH
Procedure: (§1) Competition experiments of nectin-4 antibodies. ELISA plates were coated overnight at 4° C. with goat anti-mouse IgG at […] in PBS. […] As positive control, nectin-4 was diluted at same concentrations without a premix antibody. Two wells per plate were allocated for diluent only as negative/background control. Plates were washed as previously, 50 μL/well of premix was added to each plate and incubated for one hour. Plates were washed then incubated at room temperature for one hour with Rabbit anti 6× HIS HRP diluted 1:4,000 in diluent. Plates were washed once more and incubated at room temperature for 20 minutes with 50 μL/well of ABTS substrate. […] Binding was measured as an Optical Density (O.D.) value normalized to background and calculated as a percentage of positive control at the lowest nectin-4 dilution for greatest resolution.

[2] = target: T1, Human nectin-4 ECD-6His (TNT-175); test: competition ELISA; nectin-4 ECD premixed with TNT207, captured by the coat antibody; % of signal without premix antibody
Procedure: as §1

[3] = target: T1, Human nectin-4 ECD-6His (TNT-175); test: competition ELISA; nectin-4 ECD premixed with TNT203, captured by the coat antibody; % of signal without premix antibody
Procedure: as §1

[4] = target: T2, human nectin-4 on cells (human, UniProt Q96NY8 32-510); test: flow cytometry MFI, MNK74 (nectin-4 positive) over AGS (negative)
T2 construct: whole, on cells; also called PVRL4
T2 sequence (looked up): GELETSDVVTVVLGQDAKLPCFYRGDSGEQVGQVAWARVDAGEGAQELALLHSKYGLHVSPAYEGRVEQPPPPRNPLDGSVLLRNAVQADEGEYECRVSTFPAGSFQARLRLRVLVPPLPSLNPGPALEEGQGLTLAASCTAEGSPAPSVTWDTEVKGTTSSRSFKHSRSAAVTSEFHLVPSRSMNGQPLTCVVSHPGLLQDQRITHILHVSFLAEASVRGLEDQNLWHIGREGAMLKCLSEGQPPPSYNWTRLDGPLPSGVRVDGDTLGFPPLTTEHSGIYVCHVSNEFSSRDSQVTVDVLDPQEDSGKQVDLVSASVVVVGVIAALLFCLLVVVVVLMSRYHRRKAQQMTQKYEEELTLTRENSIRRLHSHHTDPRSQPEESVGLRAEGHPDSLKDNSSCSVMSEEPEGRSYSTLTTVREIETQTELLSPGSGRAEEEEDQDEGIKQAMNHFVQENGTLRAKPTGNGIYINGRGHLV
Procedure: Cell binding of nectin-4 antibodies. Cell binding of the nectin-4 antibodies was also assessed. MNK74 (nectin-4 positive) and AGS (nectin-4 negative) cells were obtained from ATCC and cultured according to their protocols. Cells were detached with TrypLE (Gibco) and washed by centrifugation for five minutes at 400×g with FACS buffer (PBS+2% FBS). Cells were resuspended in FACS buffer, plated in 96-well format (0.25 e6/well) then pelleted by centrifugation for five minutes at 400×g. Cells were stained at 4° C. in Fixable Viability Dye eFluor 506 (eBioscience) diluted 1:4,000 in PBS. […] Cells were centrifuged, washed once in FACS buffer and stained at 4° C. with Goat F(ab′)₂ anti-Mouse IgG APC (Southern Biotech) diluted 1:400 in FACS buffer for 30 minutes or appropriate anti-human IgG. Cells were centrifuged, washed twice and fixed in 0.5% paraformaldehyde. Cells were analyzed on Attune NxT Flow Cytometer (Thermo Fisher), with subsequent data analysis by Flowjo 10.7 (BD). Dead cells were excluded by gating on the eFluor 506-negative population. […] Binding was assessed by median fluorescent intensity.

[5] = target: T1, Human nectin-4 ECD-6His (TNT-175); test: competition ELISA; nectin-4 ECD premixed with TNT206, captured by the coat antibody; % of signal without premix antibody
Procedure: as §1

[6] = target: T1, Human nectin-4 ECD-6His (TNT-175); test: competition ELISA; nectin-4 ECD premixed with TNT205, captured by the coat antibody; % of signal without premix antibody
Procedure: as §1

[7] = target: T1, Human nectin-4 ECD-6His (TNT-175); test: competition ELISA; nectin-4 ECD premixed with TNT202, captured by the coat antibody; % of signal without premix antibody
Procedure: as §1

[8] = target: T1, Human nectin-4 ECD-6His (TNT-175); test: competition ELISA; nectin-4 ECD premixed with TNT210, captured by the coat antibody; % of signal without premix antibody
Procedure: as §1

[9] = target: T1, Human nectin-4 ECD-6His (TNT-175); test: competition ELISA; nectin-4 ECD premixed with TNT201, captured by the coat antibody; % of signal without premix antibody
Procedure: as §1

[10] = target: T1, Human nectin-4 ECD-6His (TNT-175); test: competition ELISA; nectin-4 ECD premixed with TNT204, captured by the coat antibody; % of signal without premix antibody
Procedure: as §1

[11] = target: T1, Human nectin-4 ECD-6His (TNT-175); test: competition ELISA; nectin-4 ECD premixed with TNT211, captured by the coat antibody; % of signal without premix antibody
Procedure: as §1

[12] = target: T1, Human nectin-4 ECD-6His (TNT-175); test: competition ELISA; nectin-4 ECD premixed with TNT209, captured by the coat antibody; % of signal without premix antibody
Procedure: as §1

[13] = target: T1, Human nectin-4 ECD-6His (TNT-175); test: SPR ProteOn, mAb on protein A
Procedure: Initial testing of binding of nectin-4 antibodies to nectin-4. […] Biotinylated protein A (15 μg/mL) was immobilized to the surface of an NLC chip. 30 nM of purified mAb supernatant was diluted in PBS-T and captured over the protein A surface. Serial dilutions of human nectin-4 were injected over the mAb-coated chips, and binding kinetics were determined. Chips were regenerated using 4:1 v/v of IgG elution butter/4M NaCl.

[14] = target: T1, Human nectin-4 ECD-6His (TNT-175); test: competition ELISA; nectin-4 ECD premixed with TNT212, captured by the coat antibody; % of signal without premix antibody
Procedure: as §1

B1: TNT-190 (antibody, mouse IgG2a, kappa)
heavy: EVQLVQSGGGLVKPGGSLRLSCAASGFTFSDYYMSWVRQAPGKGLEWVSAISGSGGSTYYADSVKGRFTISRDNSKNTLYLQMNSLRAEDTAVYYCARDEGYYYMDVWGKGTTVTVSSAKTTAPSVYPLAPVCGDTTGSSVTLGCLVKGYFPEPVTLTWNSGSLSSGVHTFPAVLQSDLYTLSSSVTVTSSTWPSQSITCNVAHPASSTKVDKKIEPRGPTIKPCPPCKCPAPNLLGGPSVFIFPPKIKDVLMISLSPIVTCVVVDVSEDDPDVQISWFVNNVEVHTAQTQTHREDYNSTLRVVSALPIQHQDWMSGKEFKCKVNNKDLPAPIERTISKPKGSVRAPQVYVLPPPEEEMTKKQVTLTCMVTDFMPEDIYVEWTNNGKTELNYKNTEPVLDSDGSYFMYSKLRVEKKNWVERNSYSCSVVHEGLHNHHTTKSFSRTPGRPQGFGPP
light: EIVLTQSPATLSLSPGERATLSCRASQSVSSYLAWYQQKPGQAPRLLIYDASNRATGIPARFSGSGSGTDFTLTISSLQAEDFATYYCQQSYSTRFGGGTKVEIKRADAAPTVSIFPPSSEQLTSGGASVVCFLNNFYPKDINVKWKIDGSERQNGVLNSWTDQDSKDSTYSMSSTLTLTKDEYERHNSYTCEATHKTSTSPIVKSFNRNEC
In the case of B1, the “% of Positive” value [1] is reported as 0.3%, the “% of Positive” value [2] is reported as 0.3% and the “% of Positive” value [3] is reported as 3.5%. For the same binder, the “Fold-change of binding to MNK74 compared to control AGS” value [4] was 5.1 fold, the “% of Positive” value [5] was 0.5% and the “% of Positive” value [6] was 13.5%. For the same binder, the “% of Positive” value [7] was 0.8%, the “% of Positive” value [8] was 0.3% and the “% of Positive” value [9] was 1.2%. For the same binder, the “% of Positive” value [10] was 0.7%, the “% of Positive” value [11] was 2.4% and the “% of Positive” value [12] was 3.4%. For the same binder, the Kd [13] was 31.4 nM, the koff [13] was 0.00831 s⁻¹ and the kon [13] was 265000 M⁻¹ s⁻¹. For the same binder, the “% of Positive” value [14] was 1.5%.

B2: TNT-191 (antibody, mouse IgG2a, kappa)
heavy: EVQLLESGGGVVQPGRSLRLSCAASGFTFSSYGMHWVRQAPGKGLEWVAVISYDGSNKYYADSVKGRFTISRDNSKNTLYLQMNSLRAEDTAVYYCAKSSYYDYVWGSYRYTDAFDIWGQGTMVTVSSAKTTAPSVYPLAPVCGDTTGSSVTLGCLVKGYFPEPVTLTWNSGSLSSGVHTFPAVLQSDLYTLSSSVTVTSSTWPSQSITCNVAHPASSTKVDKKIEPRGPTIKPCPPCKCPAPNLLGGPSVFIFPPKIKDVLMISLSPIVTCVVVDVSEDDPDVQISWFVNNVEVHTAQTQTHREDYNSTLRVVSALPIQHQDWMSGKEFKCKVNNKDLPAPIERTISKPKGSVRAPQVYVLPPPEEEMTKKQVTLTCMVTDFMPEDIYVEWTNNGKTELNYKNTEPVLDSDGSYFMYSKLRVEKKNWVERNSYSCSVVHEGLHNHHTTKSFSRTPGRPQGFGPP
light: EIVLTQSPATLSLSPGERATLSCRASQSVSSSYLAWYQQKPGQAPRLLIYGASSRATGIPDRFSGSGSGTDFTLTISRLEPEDFAVYYCQQYNNWWTFGQGTKVDIKRADAAPTVSIFPPSSEQLTSGGASVVCFLNNFYPKDINVKWKIDGSERQNGVLNSWTDQDSKDSTYSMSSTLTLTKDEYERHNSYTCEATHKTSTSPIVKSFNRNEC
B2 was tested, and the “% of Positive” value [1] was 5.3%, the “% of Positive” value [2] was 2.5% and the “% of Positive” value [3] was 32.7%. For the same binder, the “Fold-change of binding to MNK74 compared to control AGS” value [4] was 5 fold, the “% of Positive” value [5] was 11.4% and the “% of Positive” value [6] was 54.8%. The “% of Positive” value [7] was 4.8%, the “% of Positive” value [8] was 2.4% and the “% of Positive” value [9] was 1.5%. The “% of Positive” value [10] was 4.5%, the “% of Positive” value [11] was 24.6% and the “% of Positive” value [12] was 30.4%. It also gave a Kd [13] of 4.3 nM, a koff [13] of 0.000983 s⁻¹ and a kon [13] of 229000 M⁻¹ s⁻¹. The “% of Positive” value [14] was 3%.
